The values that follow come from patent US20170021005A1.

This test has as its target PltB pentamer (B subunit of typhoid toxin, as in the crystal structure) (Salmonella enterica serovar Typhi). The test can be described thus: interface analysis of the crystal structure (computed).

Regarding “PltA (subunit of typhoid toxin, as in the crystal structure) (enzyme)”, the buried surface is 1660 Å^2 and the ΔiG (printed "ÅiG") is -17.7 kcal/mol.
